In patent US10858423B2, “Composition for the treatment of IGF-1R expressing cancer” (PIERRE FABRE MEDICAMENT, priority 2015, dated 2020):

Assays:
IGF-1R on MCF-7 cells = target: T1, IGF-1R on MCF-7 cells (Homo sapiens, UniProt P08069); assay: IGF-1R internalization by FACS on MCF-7 cells; assay type: cell-based; conditions: Table 14c; MCF-7, 10 μg/ml, 4 h
T1 construct: host or cells: MCF-7
Procedure: (§1) MCF-7 cells were incubated with 10 μg/ml of chimeric antibodies at 4° C. for 20 min. Then, cells were washed and incubated at 4° C. or 37° C. for 4 h. The quantity of cell-surface bound antibody was determined using a secondary antibody. The ΔMFI defined as the difference between MFI measured at 4° C. and MFI measured at 37° C. after a 4 hour incubation time corresponded to the quantity of internalized second IGF-1R antibodies Ab. The percentage of internalization at 10 μg/ml of Ab were calculated as followed 100*(MFI at 4° C.-MFI at 37° C.)/MFI at 4° C. and presented in Table 12.
as §1, with “The capacity of the mAb hz208F2 H026/L024 to be internalized was assessed by flow cytometry. MCF-7” for “MCF-7”, “of” for “of chimeric”, “Then, cells were washed and incubated at 4° C. or 37° C. for 4 h.” left out, “internalized” for “internalized second IGF-1R antibodies”, “14a.” for “12.”
MCF-7 cells were incubated with 10 μg/ml of humanized antibodies at 4° C. for 20 min. […] The quantity of cell-surface bound antibody was determined using a secondary antibody on a FacsCalibur Flow cytometer (Becton Dickinson). […]

soluble form of h-IGF1R = target: T2, soluble form of h-IGF1R (Homo sapiens, UniProt P08069); assay: Biacore binding competition on captured soluble h-IGF1R; conditions: antibodies 50 μg/ml, 25° C.
T2 construct: a heterotetramer composed by two alpha chains and two extracellular domains of the beta chains; made in house
From the text: The experiment was run on a Biacore X100 device based on the Surface Plasmon Resonance technology. A CM5 sensor chip was activated with a mouse anti-polyHistidine IgG1 monoclonal antibody chemically linked to the carboxymethyldextran matrix using the amine coupling chemistry. Typically, 12451 RU and 12257 RU of antibodies were grafted on the flowcell 1 (FC1) and flowcell 2 (FC2) respectively. The classical HBS-EP+ buffer was used as the running buffer. This buffer was also used for the preparation of the solutions of the proteins. The experiment was carried at 25° C. and at a flow rate of […].
The soluble form of IGF1R produced in house is a heterotetramer composed by two alpha chains and two extracellular domains of the beta chains completed by a 6 Histidine sequence at their C-terminal end. The protein is injected during one minute on the FC2 at the concentration of 30 μg/ml (about 80 nM). The antibodies are injected at the concentration of 50 μg/ml (about 330 nM). Either a first antibody solution (FIGS. 35B and 35D) or the running buffer (FIGS. 35A and 35C) is injected during 90 s on both flowcells. A second antibody solution is then injected on both flow cells. The absence of binding of the second antibody after the binding of the first antibody is the proof that both antibodies bind to a nearby site on the antigen (FIG. 35B) At the opposite the binding of the second antibody after the binding of the first antibody is the proof that the binding site of the second antibody is out and away of the binding site of the first antibody (FIG. 35D). At the end of each cycle, the sensor chip surface is regenerated by an injection of a Glycine, HCl 10 mM pH 1.5 buffer during 30 s.
The levels of binding of the Ac2 (arrows) without (FIGS. 35A and 35B) or with an Ac1 (FIGS. 35C and 35D) were recorded 20 s after the end of the injection. The data are represented on the histogram graph in FIG. 36.

% Internalization (IGF-1R on MCF-7 cells): 88%
ΔMFI (IGF-1R on MCF-7 cells): 468
binding as Ac2 after Hz208F2-4 injected as Ac1 (soluble form of h-IGF1R): completely blocks the binding of itself
B1: hz208F2 H077/L018: humanized 208F2; VH SEQ ID No. 57, VL SEQ ID No. 34 (antibody, V domains shown)
VH: QVQLVQSGAEVKKPGASVKVSCKASGYTFTSYYIHWVRQAPGQGLEWMGWIWPGDGSTKYAQKFQGRVTMTRDTSTSTVYMELSSLRSEDTAVYFCASPMITPNYAMDYWGQGTLVTVSS
VL: DIQMTQSPSSLSASVGDRVTITCRASQDISKYLNWYQQKPGKAPKLLIYYTSRLQSGVPSRFSGRGSGTDYSLTISSLQPEDFATYFCQQGSTLPYTFGGGTKVEIK
modifications: hz208F2 heavy chain H077, VH; hz208F2 Light chain L018, VL
